According to the RNAGym collection of RNA variant scans (doi:10.1073/pnas.2313332121):

B1: TPR t1 (parent)
chain: GACCAAUCUGCCCUCAGAGCUCGAGAACAUCUUCGGAUGCAGAGGAGGCAGGCUUCGGUGGCGCGAUAGCGCCAACGUCCUCAACCUCCAAUGCAUCCCACCACAUGAUGAUGCCUGAAGAGCCUUGGUUUUUUG

Variants of: B1
Test: polymerase ribozyme fitness, log enrichment relative to wild type (log ratio); higher = more active; in vitro selection for triplet polymerase activity
Method in brief: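 Genotype fitness is the logarithm of its enrichment divided by wild-type enrichment, using inverse-variance-weighted averages of replicates. That logarithm is base 2. Enrichment was measured by Illumina sequencing of input and output libraries from one triplicate in vitro selection round, with frozen incubation at −7 °C, on PCR-built, transcribed mutant libraries of each subunit of a heterodimeric triplet polymerase ribozyme, retaining genotypes with ≥10 input reads and ≥1 read per output.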

Variant	polymerase ribozyme fitness (log ratio)
C8G C31G C82A C124U	-6.38
C8G C70G A100C C123A	-2.51
C8A U30A A46C U106C C123U	-5.15
C8A G69A	-1.52
C8A U96C C123A	1.93
C8A C72U U109G	-3.8
C8A G36U G42A	-3.09
C8G C28A G61A	-3.79
C8A G69U C99A G120A G122A	-1.73
C8G C114A G135U	-0.31
C8G C15G C76G	-1.01
C8G A74U U78G	0.422
C8A U96C U116G	-0.0172
C8A G44U	-0.208
C8A G44U C123U	0.898
C8G C12A G63C	0.17
C8G C49A U96A	-0.377
C8G A37U U38C G47A U131A	-1.99
C8G C40A C98U G127C	-2.67
C8G C115G	1.06
C8G C115U	-0.75
C8G A18G G19A A27C	-3.93
C8G G10A C15G G77C G110A	-3.26
C8G A74C G120C	1.98

Variant	polymerase ribozyme fitness (log ratio)
C8G C15G U21C G36A C82U U112A	-1.27
C8A U54A C62U G110U U125C	-1.99
C8A G93A G117U G128U	-4.74
C8G C53A G117A	0.922
C8G C20U U81G	-4.46
C8A U21A A46U	-1.03
C8G C15U G48C G71A C124G	0.113
C8G C40U G60C	-0.367
C8A G36A G60U C82A G117C U131A G135U	-5.4
C8A G113U	-1.81
C8G C11G A24G C40U C56U C94U	-2.88
C8G C80U	0.0565
C8A C64U C104A G120A	0.21
C8G C11U G52U U81G U92C A119G U133A	-5.64
C8A G71U A84C A95G U109A U126A	-5.61
C8A G19C C82A	-1.97
C8A G52C U81A	-2.06
C8G A27U G47C	-3.02
C8G C72A C89A C94G	-1.88
C8A C97A	-4.07
C8G A29U	-1.15
C8A G117A A121U	1.21
C8G A68U G77C G120C	-7.19
C8A C72G	0.254

Variant	polymerase ribozyme fitness (log ratio)
C8A G60A U78A U92C	-1.3
C8G C73U C79U	0.882
C8A G42A C73U	-1.21
C8G A91C G122A	-0.3
C8A U130G	0.269
C8A G52U C89U	-0.556
C8G A29U C73A G120U	-0.106
C8A G36A C79U U96G C102U	-2.91
C8A G17C G63U U96C C97A G113U	-6.74
C8G C31G	-6.18
C8A C89A	-1.24
C8A U33A G42U C73U U112A C123A	-5.52
C8G C86G C89U G93A	-0.898
C8G A18C A37C C64G A90U U106A C123A U131A	-6.48
C8G A41G U78G G122U	-0.0287
C8A C104U	0.701
C8G C28G C56A C88A	-3.47
C8G A43G G69C	-3.18
C8G G19A A46C G71A	-3.53
C8A G45U C56U C73U A84C A95U	-1.85
C8G C12U G51A U129G	-3.08
C8G C72G	0.418
C8G C72U	0.18
C8G C49A G71U U92A C123U	-2.6

Variant	polymerase ribozyme fitness (log ratio)
C8A C114G	-2.41
C8A U78C U106C C114U	-2.11
C8G A41G A83G G110U A121G	-3.81
C8A G63A C98A	-5.9
C8G A41C	-1.28
C8G C22U C40G G120A C124A	-2.61
C8G C89U U106A	0.442
C8G C20U C40G A90U C102U	-6.69
C8A C82A A90C	-1.03
C8G C97U U109G C123U	-4.98
C8G C70A	-0.64
C8A C86G G113A	-1.25
C8A U9A A50U C80U A84C	-2.54
C8A G77U C82A	0.031
C8G C34U C53G A90U G120A	-5.88
C8G G19U G48A A50U U54G C72U U92A U112A	-4.04
C8G C13G C15G C34A A46C C88U C123U	-5.49
C8G C22A C62U U106A	-3.64
C8G C13G G36A U78A A111C	0.328
C8G A26G G57U A119G U130G	-0.722
C8G C99U	-2.82
C8G C11U C22G C72U	-3.41
C8A U112A	1.61
C8A U112G	0.614

Variant	polymerase ribozyme fitness (log ratio)
C8A C64A	-5.69
C8G C34G	-6.45
C8G C34U	-3.12
C8G C12G	0.399
C8G A24C U38G G44A G63A C88U A95C G117U	-7.47
C8G C20A U96A U131G	-3.68
C8A U59G C72G U133G	-3.35
C8A C104A G120A	1.08
C8A C104A A105C C124G U126G	-3.52
C8A G48U	-0.337
C8G A27U G36A G42U C76A U96A U109A U116G	-6.96
C8G C15G C72G	-1.27
C8G C22G G47A G77U	-4.32
C8G A68G G71U A108G	-4.73
C8A G77U U106G C115G	-1.95
C8G C13G C40U U54G	0.0381
C8G A29C G48A C70U	-2.95
C8G C76U C82G G93A U116C	-2.26
C8A U14G G61U C123A U131A G135U	1.21
C8G A46G A66C A90U	-4.16
C8G A37U A90U G93C U132A	-2.23
C8A G35C G63A C98A	-6.69
C8G A46G C56A A84C C104A C115U A118U A119U	-4.77
C8G A50U G61U	0.00345

Variant	polymerase ribozyme fitness (log ratio)
C8A C124U	1.95
C8G C82A A90U U92G G117U G120C	-1.01
C8G C12A G39A C85U U112A G113C	-1.36
C8G A27G G93U C104A A111U U125C	-4.25
C8G A26U G52A G63C	-4.29
C8G G10C C11U C20A U33C C56G G63U C64G C72G C114G G127U	-6.79
C8G C12U C15U G120U	2.64
C8G C20U G113C	-1.52
C8G A16U C94A	-0.757
C8G G17U A26U C72G	-4.46
C8G C123U	1.6
C8A G23A A66G G69U C104U A118G	-5.28
C8G A16C G61C G71A G120C	-6.1
C8G C13G A37C G52C C62G C86U	-4.08
C8A G51C C53A A66U C88A C114A	-6.04
C8A C79U	0.419
C8G C13A A18U G51U C56A U116C	-5.95
C8G C85A C124U	1.24
C8A U132A	0.369
C8A C70U C89A G120A	-0.458
C8G G17C C40U G61U U106A U131A	-4.28
C8G G19C C20U U21G U54C U87G	-4.85
C8G C53G A66U G120U	1.03
C8A U55G C114A C115U	-2.83

Variant	polymerase ribozyme fitness (log ratio)
C8A G45C A105U	-1.9
C8A C104U G122A	0.724
C8G G19A	-1.89
C8A U55C C79G C94A	-3.64
C8A G45A	0.134
C8A G45U	-0.263
C8G A16G C56G A83C	0.0154
C8G A50G	0.932
C8G C73U A119U	0.0435
C8G A37U A74C C88G G110A	-3.12
C8A C72U U78A G93C C101A	-1.75
C8G A26U U81A	-3.21
C8G C82A	0.946
C8A C80A	-1.88
C8A G60U C104G C124U	-5.09
C8G C56A C94U	0.74
C8G C72U A90C A91U A95G	-1.1
C8G C22U G23A C123G	-7.38
C8A G61A C115U	-0.118
C8G G17U G48A G57U G69U A105U	-2.21
C8A G44A A105G	-3.51
C8A G36A G57A G61A C72G	-1.48
C8A C70U C72U	-0.317
